According to US20070265201A1 (published 2007):
Ends that are not written are not given here.

Legend:
Assay in all cases: GST pull-down, 35S-labeled in vitro translated probe, autoradiography
[1] = biological target: T1, Spi-1 ETS domain, in vitro translated radiolabeled probe (UniProt P17947 170-253)
T1 construct: domain: ETS domain; also called PU.1 ETS domain

[2] = biological target: T2, Cytomegalovirus (CMV) Immediate Early 2 protein (IE2), in vitro translated radiolabeled probe (human Cytomegalovirus (hCMV), UniProt P19893 1-580, labeled with 35S methionine)
T2 sequence: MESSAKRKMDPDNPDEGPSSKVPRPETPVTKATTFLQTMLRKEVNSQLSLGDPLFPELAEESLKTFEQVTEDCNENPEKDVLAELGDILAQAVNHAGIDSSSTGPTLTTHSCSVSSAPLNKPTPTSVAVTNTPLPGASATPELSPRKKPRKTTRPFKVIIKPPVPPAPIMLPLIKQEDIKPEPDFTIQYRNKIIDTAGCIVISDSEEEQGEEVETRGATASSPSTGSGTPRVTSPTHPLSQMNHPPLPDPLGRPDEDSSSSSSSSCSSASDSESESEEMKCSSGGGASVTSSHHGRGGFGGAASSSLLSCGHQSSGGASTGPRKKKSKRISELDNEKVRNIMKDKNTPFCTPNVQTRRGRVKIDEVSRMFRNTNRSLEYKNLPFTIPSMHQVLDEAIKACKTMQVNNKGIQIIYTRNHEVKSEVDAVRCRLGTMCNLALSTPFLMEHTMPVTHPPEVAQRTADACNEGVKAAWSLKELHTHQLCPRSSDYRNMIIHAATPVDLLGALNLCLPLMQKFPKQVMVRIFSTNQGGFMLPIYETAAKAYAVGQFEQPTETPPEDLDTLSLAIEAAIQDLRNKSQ

[3] = biological target: T3, C/EBPβ bZIP domain, in vitro translated radiolabeled probe (UniProt P17676 269-345, labeled with 35S methionine)
T3 construct: range 269-345; Residues 269-345 are stated for the bZIP expression vector in pcDNA3.1; also called bZIP region of NFIL6
T3 sequence (P17676 269-345 limits assumed): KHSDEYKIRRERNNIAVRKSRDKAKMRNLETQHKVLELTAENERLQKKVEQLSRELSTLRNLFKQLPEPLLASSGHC

Measured: binding result

B1: GST fusion of IE2 291-364 fragment with an internal deletion of residues 315-328 (delA) (other)
chain: SSHHGRGGFGGAASSSLLSCGHQSRISELDNEKVRNIMKDKNTPFCTPNVQTRRGRVKID
modifications: cysteine pairing not given here; also: GST fusion, linker and position not given here
notes: also called IE2 291-364Δ315-328; not shown: glutathione-S-transferase (GST) fusion partner
no binding: all assays above
